Data reported in publication PMC11199634.

Biological target: LgBiT-PP1α, P62136
Experiment: split-luciferase kinetic trace, competition with untagged SDS22
Settings: chain shown with the change; 10 μM competitor added at t = 22 min; value read at the last time point (about 45 min); buffer control est. 160; parent: est. 83; read off a plot

Sequence of LgBiT-PP1α, P62136 (P62136 whole entry): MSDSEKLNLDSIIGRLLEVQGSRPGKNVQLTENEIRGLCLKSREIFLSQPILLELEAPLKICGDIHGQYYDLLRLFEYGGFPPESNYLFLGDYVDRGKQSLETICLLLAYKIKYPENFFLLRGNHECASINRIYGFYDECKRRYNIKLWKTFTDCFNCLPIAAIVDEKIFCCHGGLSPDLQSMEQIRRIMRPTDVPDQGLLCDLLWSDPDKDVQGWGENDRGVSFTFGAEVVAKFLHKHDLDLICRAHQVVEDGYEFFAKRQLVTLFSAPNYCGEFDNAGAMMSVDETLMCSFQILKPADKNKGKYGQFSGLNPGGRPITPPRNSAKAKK

response (% of value at 22min): 150
B1: SDS22 (tag-free, purified), Q15435 E192A (protein)
chain: MAAERGAGQQQSQEMMEVDRRVESEESGDEEGKKHSSGIVADLSEQSLKDGEERGEEDPEEEHELPVDMETINLDRDAEDVDLNHYRIGKIEGFEVLKKVKTLCLRQNLIKCIENLEELQSLRELDLYDNQIKKIENLEALTELEILDISFNLLRNIEGVDKLTRLKKLFLVNNKISKIENLSNLHQLQMLALGSNRIRAIENIDTLTNLESLFLGKNKITKLQNLDALTNLTVLSMQSNRLTKIEGLQNLVNLRELYLSHNGIEVIEGLENNNKLTMLDIASNRIKKIENISHLTELQEFWMNDNLLESWSDLDELKGARSLETVYLERNPLQKDPQYRRKVMLALPSVRQIDATFVRF
